The text below walks through data of patent publication US20110059095A1 (Regeneron, published 2011).

Where no end group is shown, it is not given here. The star is where a group is joined. Biotin = O=C1N[C@H]2[C@H](CS[C@H]2CCCCC(=O)*)N1

In experiment [1] the target is T1, Peptide L (human PAR-3), unbiotinylated (Human).
T1 peptide: DTNNLAKPTLPIKTFRGA
The experiment is described as follows: SPR, antibody captured. A general note: Surface plasmon resonance follows binding to a sensor surface in real time, without labels.

Experiment [2] concerns the target T2, Peptide M (human PAR-4), unbiotinylated (Human).
T2 peptide: ESGSTGGGDDSTPSILPAP
Briefly: SPR, antibody captured.

Experiment [3] deals with T3, Peptide K (human PAR-1), unbiotinylated (Human).
T3 peptide: ATNATLDPRSFLLRNPND
The experiment is described as follows: SPR, antibody captured.

The target of experiment [4] is T4, Peptide B (human PAR-2), unbiotinylated (Human).
T4 construct: also called Peptide B No Biotin
T4 peptide: SLIGKVDGTSHVTG
The experiment is described as follows: SPR, antibody captured. The protocol: Equilibrium dissociation constants (KD values) for antigen binding to selected purified PAR-2 antibodies were determined by surface kinetics using a real-time surface plasmon resonance biosensor assay. Antibody was captured on either a rabbit anti-mouse IgG polyclonal antibody (GE Healthcare, Piscataway, N.J.) surface or a goat anti-human IgG polyclonal antibody (Jackson Immuno Research Lab, West Grove, Pa.) surface created through direct amine chemical coupling to a BIACORE™ CM5 sensor chip to form a captured antibody surface. […] Antigen-antibody binding and dissociation were monitored in real time at room temperature. Kinetic analysis was performed to calculate KD and half-life of antigen/antibody complex dissociation (Table 10). For those antibodies where no T_{1/2} value is shown, steady state analysis was used to calculate the KD value. NB: no binding observed under current experimental conditions. ND: not determined.

Experiment [5] concerns the target T5, Peptide A (human PAR-2), C-terminal biotinylated (Human, C-terminal biotin via G4S linker).
T5 construct: also called Peptide A C-Term
The experiment is described as follows: SPR, peptide immobilized. As to the method:
(§1) In another series of experiments, equilibrium dissociation constants (KD values) for purified antibody binding to selected biotinylated and unbiotinylated forms of PAR-2 peptides were determined by surface kinetics using a real-time surface plasmon resonance biosensor assay. Neutravidin (Pierce, Rockford, Ill.) was covalently coupled to the surface of a Biacore™ C1 chip or CM5 chip using amine coupling chemistry. Biotinylated (N-Term or C-Term) PAR-2 peptides (Peptides A and B) were immobilized on the surface via the high affinity binding interaction between biotin and the amine coupled Neutravidin.
(§2) In a first experiment using this format, varying concentrations (ranging from 5 to 100 μg/ml) of purified antibody were injected at a rate of 50 μl/min over a surface coated with immobilized peptide at low-density (<1RU) for 300 seconds. Antibody-peptide binding and dissociation was monitored in real time 25° C.

The target in experiment [6] is T6, Peptide B (human PAR-2), C-terminal biotinylated (Human, not fully specified).
T6 construct: also called Peptide B C-Term
T6 peptide: SLIGKVDGTSHVTGGGGGS-biotin
The experiment is described as follows: SPR, peptide immobilized. As to the method:
as §1, §2

The target in experiment [7] is T7, Peptide F (monkey PAR-2), N-terminal biotinylated (Monkey (Macaca mulatta), N-terminal biotin via G4S linker).
T7 construct: also called Peptide F N-Term
The experiment is described as follows: SPR, peptide immobilized; SPR, biotinylated peptide on the chip, bivalent antibody in solution.

For experiment [8], the target named is T8, Peptide C (human PAR-2), N-terminal biotinylated (Human).
T8 construct: also called Peptide C N-Term
T8 peptide: Biotin-GGGGSSLIGKV
The experiment is described as follows: SPR, peptide immobilized.

For experiment [9], the target named is T9, Peptide B (human PAR-2), N-terminal biotinylated (Human).
T9 construct: also called Peptide B N-Term
T9 peptide: Biotin-GGGGSSLIGKVDGTSHVTG
The experiment is described as follows: SPR, peptide immobilized.

Experiment [10] has as its target T10, Peptide A (human PAR-2), N-terminal biotinylated (Human, N-terminal biotin via G4S linker).
T10 construct: also called Peptide A N-Term
T10 peptide: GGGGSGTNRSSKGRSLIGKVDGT
The experiment is described as follows: SPR, peptide immobilized.

Experiment [11] has as its target T11, Peptide G (rat PAR-2), N-terminal biotinylated (Rat (Rattus norvegicus), N-terminal biotin via G4S linker).
T11 construct: also called Peptide G N-Term
T11 peptide: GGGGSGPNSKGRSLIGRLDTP
Briefly: SPR, peptide immobilized.

Experiment [12] concerns the target T12, Peptide E (mouse PAR-2), N-terminal biotinylated (Mouse (Mus musculus), N-terminal biotin via G4S linker).
T12 construct: also called Peptide E N-Term
T12 peptide: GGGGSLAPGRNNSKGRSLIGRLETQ
The experiment is described as follows: SPR, peptide immobilized.

In experiment [13] the target is T13, full length mouse PAR-2 (mouse, UniProt P55086 26-399).
T13 construct: also called 293/D9/mPAR-2rec cells
T13 chain: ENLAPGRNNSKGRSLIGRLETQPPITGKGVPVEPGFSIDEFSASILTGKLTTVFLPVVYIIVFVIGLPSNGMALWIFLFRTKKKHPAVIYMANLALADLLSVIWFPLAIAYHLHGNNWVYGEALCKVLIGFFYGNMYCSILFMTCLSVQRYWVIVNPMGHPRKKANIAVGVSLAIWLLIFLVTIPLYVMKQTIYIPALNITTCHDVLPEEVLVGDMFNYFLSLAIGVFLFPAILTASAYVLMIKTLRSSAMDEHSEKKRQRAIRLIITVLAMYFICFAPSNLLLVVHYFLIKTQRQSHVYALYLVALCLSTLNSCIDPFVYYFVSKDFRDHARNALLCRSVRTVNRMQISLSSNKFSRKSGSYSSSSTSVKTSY
Briefly: MSD cell binding. The protocol:
(§3) HEK293 cells were transfected with an NF-κB-luciferase-IRES-eGFP reporter plasmid. […] A clonal cell line, named D9, having low background levels of luciferase activity and high levels of eGFP when induced with IL-1β was made by a series of successive sorts of cell populations using flow cytometry. The 293/D9 cell line was then separately transfected with human PAR-2 or mouse PAR-2 to create the stable cell lines 293/D9/h PAR-2rec and 293/D9/m PAR-2rec, respectively.
(§4) Cells were plated on MSD high-bind 96 well plates at a density of 4×10⁴ cells/well in PBS and incubated for one hour at room temperature. Cells were then blocked in PBS with 2% BSA and incubated at room temperature for one hour. Anti-PAR-2 antibodies (ranging from 100 nM to 0.098 nM) were serially diluted two-fold in PBS with 0.5% BSA and incubated with the cells for one hour at room temperature followed by washing in PBS with 0.5% BSA. Sulfo-tagged anti-human IgG antibody (MSD) at a concentration of 0.1 μg/ml was then added to the cell/antibody mixture and incubated at room temperature for an additional hour. After another wash, a 1× non-surfactant containing read buffer was added and electro-chemiluminescent signal was read on the MSD Sector Imager. Signal of antibody binding to 293/D9 cells was subtracted from signal to 293/D9/hPAR-2rec or 293/D9/mPAR-2rec cells. Subtracted data were analyzed using a sigmoidal dose-response model in GraphPad Prism and EC₅₀ and Bₘₐₓ values were reported (Table 18). EC₅₀ values are defined as the antibody concentration required to achieve 50% maximal binding (Bₘₐₓ) to cells.

Experiment [14] has as its target T14, full length human PAR-2 (human, UniProt P55085 26-397).
T14 construct: overexpressed on HEK293-derived 293/D9 cells; also called 293/D9/hPAR-2rec cells
The experiment is described as follows: MSD cell binding. As to the method: as §3, §4

T14 sequence (P55085 26-397 G138A limits assumed): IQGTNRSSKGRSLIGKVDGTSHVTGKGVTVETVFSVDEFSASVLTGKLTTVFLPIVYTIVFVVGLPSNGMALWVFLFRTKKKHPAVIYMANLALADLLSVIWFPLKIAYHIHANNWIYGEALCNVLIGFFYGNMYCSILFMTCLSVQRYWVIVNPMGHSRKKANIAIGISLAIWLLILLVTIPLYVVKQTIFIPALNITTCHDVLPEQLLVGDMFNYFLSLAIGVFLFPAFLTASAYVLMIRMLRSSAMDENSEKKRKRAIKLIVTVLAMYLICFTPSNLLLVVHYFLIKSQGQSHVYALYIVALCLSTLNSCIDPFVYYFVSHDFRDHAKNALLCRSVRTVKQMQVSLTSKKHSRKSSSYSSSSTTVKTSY
T7 sequence (peptide, as listed by the source): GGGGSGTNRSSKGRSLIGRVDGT

B1: H4H590N (antibody, human IgG4, V domains shown)
VH: EVQLVESGGGLVQPGRSLRLSCAASGFTFDDYAMHWVRQAPGKGLEWVSGITWNSGTMAYADSVKGRFTISRDNAKNSLYLQMNSLRAEDTALYYCAKENWAFDYWGQGTLVTVSS
VL: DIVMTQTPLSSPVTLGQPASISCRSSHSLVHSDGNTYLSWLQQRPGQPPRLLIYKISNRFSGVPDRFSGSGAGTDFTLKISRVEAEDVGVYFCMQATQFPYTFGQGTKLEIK
notes: cloned onto human IgG4; also called H1M590N variable regions
For B1, the binding result in experiment [1], in experiment [2], in experiment [3], in [4], in experiment [6] and in [8] was “no binding” each time. Moreover, the binding result in experiment [9] is “no binding”. Moreover, the Kd in [5] came out at 3.56 nM; in [7], 1.84 nM; in [10] it was 1.52 nM; in [11], 2.94 nM; in experiment [12], 1.28 nM. Further, the T1/2 in experiment [5] worked out at 3 min; in experiment [7] it was 2 min; in [10] it was 3 min; in [11] it was 2 min; in [12] it was 7 min. Also, the Bmax in [13] is 13300 MSD Unit; in experiment [14], 6550 MSD Unit. Besides, the figures for the EC50 in experiment [13] and in [14] were 5.76 nM and 9.72 nM, respectively.

The term EC50 denotes the concentration giving half of the maximal effect.
